Values quoted from earlier work, collected in publication PMC6858787.

Biological target: CheY (Thermotoga maritima) (UniProt Q56312)
UniProt Q56312, sequence (Q56312 whole entry): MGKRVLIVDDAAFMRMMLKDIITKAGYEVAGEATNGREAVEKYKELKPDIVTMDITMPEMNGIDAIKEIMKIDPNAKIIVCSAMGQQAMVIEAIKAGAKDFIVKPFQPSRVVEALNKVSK

- Kd: 200 nM
Substance: CheA CheY binding domain (from UniProt Q56310)
